Source: US20250051407A1, “De novo designed sequence-specific DNA binding proteins” (University of Washington, priority 2023, published 2025)

Legend:
[1] = tested on: DBP57-TetR (synthetic construct); assay: cell_activity; details: E. coli YFP NOT gate, 1 mM IPTG
[2] = tested on: DBP48-TetR (synthetic construct); assay: cell_activity; details: E. coli YFP NOT gate, 1 mM IPTG
[3] = tested on: biotinylated target dsDNA with non-biotinylated competitor dsDNA; assay: Yeast display competition assay with base-substituted competitor dsDNA; format: binding
Text: We used a yeast display competition assay to characterize the DNA binding site specificity of a subset of the designs (FIG. 1A-E, left; FIG. 5). Addition of non-biotinylated competitor dsDNA to biotinylated target sequence reduced binding signal by flow cytometry (FIG. 1A-E, middle). […] For example, in DBP6 (FIG. 1A) R31 and R36 in the design model form bidentate hydrogen bonds with the guanines of base pair positions G12 and C9, respectively, while T32 forms a hydrogen bond with C10.
(§1) For yeast display characterization of individual designs, including competition assays, DNA sequences encoding the proteins of interest were purchased as Integrated DNA Technologies (IDT) E-Blocks™, transformed into yeast cells, and incubated in 96 well culture plates. Labeling with biotinylated dsDNA targets and SAPE/FITC was performed in a 96 well plate format. For yeast display competition assays, labeling was performed without avidity using 1 μM biotinylated dsDNA duplex oligos and an excess of 8 μM non-biotinylated competitor dsDNA duplex oligos. […] Flow cytometry analysis was performed with an Attune NxT™ flow cytometer with autosampler. Flow cytometry data analysis was performed using custom python code and the CytoFlow™ python package. For each individual sample, gating of the expression population was performed using the CytoFlow™ Gaussian Mixture Model and the ratio of SAPE channel intensity to FITC channel intensity (binding signal/expression signal) was calculated for all gated expression events of the sample.

[4] = tested on: biotinylated dsDNA oligo (designed DNA target); assay: Clonal yeast surface display binding to biotinylated dsDNA oligo
Text: For each set of designs, synthetic oligonucleotides (230 base pairs) encoding the 50-65-residue designed proteins were ordered in a single pool and cloned into a yeast surface-expression vector. Cells containing designs that bound each DNA target were enriched by several rounds of fluorescence-activated cell sorting (FACS) using fluorescently labeled target dsDNA oligos. The naive and sorted populations for each DNA target were deep sequenced, and the frequency of each design in the starting population and after each sort was determined. From this analysis, we identified 97 designs that were substantially enriched (>100×) in pools sorted with their intended dsDNA target compared to the naive library. […]
For yeast display characterization of individual designs, including competition assays, DNA sequences encoding the proteins of interest were purchased as Integrated DNA Technologies (IDT) E-Blocks™, transformed into yeast cells, and incubated in 96 well culture plates. […] For each individual sample, gating of the expression population was performed using the CytoFlow™ Gaussian Mixture Model and the ratio of SAPE channel intensity to FITC channel intensity (binding signal/expression signal) was calculated for all gated expression events of the sample.

[5] = tested on: synTF-specific cis-regulatory elements (CRE) in HEK293T cells; assay: Transcriptional activation by synTFs in HEK293T cells (ENGRAM); format: cell-based; details: DBP fused to GCN4 dimerization domain and VP64; HEK293T cells expressing PEmax; dependent on spacing between motifs
Text: Next, we investigated whether the DBPs can be used as activators in mammalian cells. A set of synthetic transcription factors (synTFs) were created by fusing the GCN4 dimerization domain and the VP64 activation domain to the C-termini of DBPs 9, 35opt, 48, 57, and 60 which recognize 3 unique motifs. The dimerization domain allows the DBPs to recognize a palindromic target sequence consisting of two binding motifs, improving the binding affinity to the DNA sequence (FIG. 2C). We created synTF specific cis-regulatory elements (CRE) with 4 repeats spaced by 6 bp to drive the expression of downstream genes, and used the ENGRAM (43) recording technology to measure the activity of the synTFs in HEK293 cells. In ENGRAM, each CRE drives the expression of a uniquely barcoded pegRNA, which upon expression is recorded into the DNA TAPE at the HEK3 locus by prime-editor (PEmax); the activity of individual synTFs can be measured as the abundance of the barcode on the DNA TAPE (FIG. 2C). We first tested 3 different spacings-1 bp, 3 bp, and 5 bp-between the palindromic binding motifs to maximize the recorder activity. 3 synTF specific recorders and 1 TCF-LEF-recorder (negative control) were mixed with ratio 2:2:2:1 and co-transfected with synTFs into the HEK293T cells expressing PEmax. Cells were harvested and analyzed 2 days post-transfection. After analyzing the barcode abundance on the DNA TAPE, we observed 3-5 fold activation for DBP9/DBP35 and DBP57/DBP60 (FIG. 2D).
HEK293T cells expressing PEmax™ were cultured in DMEM High glucose (GIBCO), supplemented with 10% Fetal Bovine Serum (Rocky Mountain Biologicals) and 1% penicillin-streptomycin (GIBCO). Cells were grown with 5% CO2 at 37° C. 1×10^5 cells were seeded on a 48-well plate a day before transfection. Enhancer plasmid and binder plasmid were mixed with a ratio of 2:1. Enhancer variants and background control were mixed with a ratio of 2:2:2:1. A total of 300 ng of plasmid were transfected using Lipofectamine™ 3000 (ThermoFisher, L3000015), following the manufacturer's protocol. Cells were harvested 2 days post-transfection. Genomic DNA was extracted based on the protocol described earlier (43). Briefly, cells were lysed using freshly prepared lysis buffer (10 mM Tris-HCl, pH 7.5; 0.05% SDS; 25 µg/ml protease (ThermoFisher)) for each well. The genomic DNA mixture was incubated at 50° C. for 1 h, followed by an 80° C. enzyme inactivation step for 30 min. The DNA TAPE was amplified from the genomic DNA directly for next generation sequencing. Recorded information was extracted via custom analysis code. Each enhancer has a unique barcode representing its activity. Transcription activation was measured as the fold change in the barcode abundance relative to the negative control barcode. All measurements were performed in triplicates.

[6] = tested on: 13 unique dsDNA targets; assay: All-by-all yeast surface display screen of DBP design hits; format: binding
Procedure: And an all-by-all screen of DBP design hits to 13 unique dsDNA targets was performed (FIG. 4, table 2). […] To try to understand these observed binding preferences, each tested DNA sequence was threaded onto each design complex model at all possible base pair alignments, the alternative complex models were relaxed with Rosetta™, and the model with the most favorable Rosetta™ ΔΔG was selected.
Saccharomyces cerevisiae EBY100 strain cultures were grown in C-Trp-Ura medium supplemented with 2% (w/v) glucose. For induction of expression, yeast cells were centrifuged at 6,000 g for 1 min and resuspended in SGCAA medium supplemented with 0.2% (w/v) glucose at the cell density of 1×10^7 cells per ml and induced at 30° C. for 16-24 h. Cells were washed with PBSF (PBS with 1% (w/v) BSA) and labeled with biotinylated targets using two labeling methods: with-avidity and without-avidity labeling. For the with-avidity method, the cells were incubated with biotinylated target, together with anti-c-Myc fluorescein isothiocyanate (FITC, Miltenyi Biotech) and streptavidin-phycoerythrin (SAPE, ThermoFisher). The concentration of SAPE in the with-avidity method was used at one-quarter of the concentration of the biotinylated targets. For the without-avidity method, the cells were first incubated with biotinylated targets, washed and secondarily labeled with SAPE and FITC.
as §1

[7] = tested on: synthetic promoter containing the designed DBP binding sites controlling YFP; assay: Transcriptional repression assay (NOT gate, YFP) in E. coli; format: cell-based, Escherichia coli; details: IPTG induction (1 mM), flow cytometry
Text: We next tested the ability of the designed DBPs to function in cells to regulate transcription. We constructed candidate NOT gates (38) to assay transcriptional repression in Escherichia coli, where the input is a designed DBP under control of the IPTG-inducible PTac promoter and the output is yellow fluorescent protein (YFP) expression driven by a promoter incorporating each DBP's DNA binding site. […] To increase avidity and bulk, we fused the DBPs to the homodimerization domain of the TetR protein (39), using RFdiffusion (40) and ProteinMPNN sequence design to generate rigid linkers that orient the DBP domain of each dimer unit on a DNA target containing two palindromic binding sites. For DBPs 48, 69, and 57, we selected 96 TetR fusions for experimental characterization in the NOT gate circuit. Upon initial screening, we observed modest repression for several designs and selected two for further validation (one incorporating DBP48, the other DBP57) (FIG. 8). […]

## TCTGGATAGTGTATCCAGATTGACATCTGGAAGTATATCCAGATAATGAGCACTTCC (double strand) [PDBP57 synthetic promoter]
[1]
  activity (fold repression): 8.1

## GGCGTCAGGTGGACGCAGATTGACAGCGTCAGGTGGACGCTTATAATGAGCACTTCC (double strand) [PDBP48 synthetic promoter]
[2]
  activity (fold repression): 3.4

B1: DBP35opt: optimized DBP35 combining R33N, K18V and P42Q; sequence matches Table 1 row SEQ ID NO: 50, DNA target B (protein)
chain: GFGRAVKEKRKELGLTQVEFAEKAGLSRRTIINIERGYIVPQKATKEKIAKALGTSVEELEQA
[3]
  Number of base positions of specificity: 7 base positions
[4]
  Detectable binding down to (dsDNA concentration): ~150 pM
[5]
  Fold activation of synTFs measured as normalized barcode abundance in the DNA TAPE: 3-5 fold
[6]; yeast display screen against the 13 DNA targets, versus original DBP35
  Off-target binding: strongly decreased off-target binding

B2: DBP57: designed DNA-binding protein, SEQ ID NO: 31, DNA target E (protein)
chain: MVLTPMERIGEFIKRARREAGLTQRELAELAGVGQSTVSRIEKGEKCSPELVEKILEALRKV
[7]
  Fold repression of YFP by single DBP domains and tandem linked DBP domains: not observed
[5]
  Fold activation of synTFs measured as normalized barcode abundance in the DNA TAPE: 3-5 fold
[6]; 1 μM dsDNA with avidity, including designed target sequence
  Number of the 13 tested DNA target sequences preferentially bound: less than 3
[6]; all-by-all screen with Rosetta-predicted motifs
  Binding specificity versus design models: bound with specificity closely consistent with the design models
[6]; yeast surface display, 1 μM dsDNA with avidity
  Binding to initial design target: bound strongly
[6]; yeast surface display, 1 μM dsDNA with avidity, alternate target H (DBP90), D (DBP48), C (DBP57)
  Binding to alternate target sequence: bound strongly
